Experimental data from US20150328292A1, “CASPASE POLYPEPTIDES HAVING MODIFIED ACTIVITY AND USES THEREOF” (BELLICUM PHARMACEUTICALS, INC., priority 2014, published 2015).
Entries after “also recorded” stand apart in the source; their conditions may differ. Where a SMILES comes first, the peptide text is derived from it. The star is where a group is joined. Cbz = O=C(OCc1ccccc1)*; CH2F = FC*

Legend:
[1] = tested on: F-Casp9M.I.GFPhigh-transduced T cells; assay: annexin-V/7-AAD staining of CID-treated transduced CTLs; format: cell-based, human; conditions: 100 μM for 1 hour prior to adding CID
Method: CID (AP20187; ARIAD Pharmaceuticals) at indicated concentrations was added to transfected 293T cells or transduced CTLs. Adherent and nonadherent cells were harvested and washed with annexin binding buffer (BD Pharmingen, San Jose, Calif.). Cells were stained with annexin-V and 7-amino-actinomycin D (7-AAD) for 15 minutes according to the manufacturer's instructions (BD Pharmingen). Within 1 hour after staining, cells were analyzed by flow cytometry using CellQuest software (Becton Dickinson).

[2] = tested on: HEK293T/16 cells; assay: SEAP reporter-based surrogate killing assay (basal activity and AP1903 IC50); format: cell-based, human; conditions: for relative SEAP activity Units (basal activity): no AP1903, higher SEAP = lower basal activity; for basal activity / basal signaling (in words): AP1903-independent SEAP activity, vs wild type
Method: FIG. 45 provides a schematic of an analysis of SEAP assays. […] of the mixture was seeded onto each well of a 96-well plate. […] For the assay, 4-methylumbelliferyl phosphate substrate was hydrolyzed by SEAP to 4-methylumbelliferon, a metabolite that can be excited with 364 nm and detected with an emission filter of 448 nm. Since SEAP is used as a marker for cell viability, reduced SEAP reading corresponds with increased icaspase-9 activities.
Early passage HEK293T/16 cells (ATCC, Manassas, Va.) were maintained in IMDM, GlutaMAX™ (Life Technologies, Carlsbad, Calif.) supplemented with 10% FBS, 100 U/mL penicillin, and 100 […] until transfection in a humidified, 37° C., 5% CO2/95% air atmosphere. Cells in logarithmic-phase growth were transiently transfected with 800 ng to 2 μg of expression plasmid encoding iCasp9 mutants and 500 ng of an expression plasmid encoding SRα promoter driven SEAP per million cells in 15-mL conical tubes. […] GeneJammer® Transfection Reagent at a ratio of 3 μl per ug of plasmid DNA was used to transiently transfect HEK293T/16 cells in the absence of antibiotics. 100 μl or 2 mL of the transfection mixture was added to each well in 96-well or 6-well plate, respectively.
Briefly, after 65° C. heat denaturation for 45 minutes to reduce background caused by endogenous (and serum-derived) alkaline phosphatases that are sensitive to heat, 5 μl of supernatants was added to 95 μl of PBS and added to 100 μl of substrate buffer, containing 1 μl of 100 mM 4-methylumbelliferyl phosphate (4-MUP; Sigma, St. Louis, Mo.) re-suspended in 2 M diethanolamine. Hydrolysis of 4-MUP by SEAP produces a fluorescent […] with excitation/emission (355/460 nm), which can be easily measured. Assays were performed in black opaque 96-well plates to minimize fluorescence leakage between wells (FIG. 45).

[3] = tested on: PG13 packaging cells; format: cell-based
[4] = tested on: Activated T cells; assay: Control of T cell proliferation in vitro over 10 days with AP1903; format: cell-based, human; conditions: AP1903 on days 0 and 4, 10 days

| Molecule | basal activity / basal signaling (in words) [2] | also measured |
| --- | --- | --- |
| COC(=O)C[C@H](NC(=O)[C@H](C)NC(=O)[C@@H](NC(=O)OCc1ccccc1)C(C)C)C(=O)CF [zVAD-fmk] (Cbz-Val-Ala-Asp(OMe)-CH2F) | – | effect on CID-induced apoptosis [1]: inhibited |
| D330A: ΔCasp9 (res. 135-416) D330A, SEQ ID NO: 24 (protein) GFGDVGALESLRGNADLAYILSMEPCGHCLIINNVNFCRESGLRTRTGSNIDCEKLRRRFSSLHFMVEVKGDLTAKKMVLALLELARQDHGALDCCVVVILSHGCQASHLQFPGAVYGTDGCPVSVEKIVNIFNGTSCPSLGGKPKLFFIQACGGEQKDHGFEVASTSPEDESPGSNPEPDATPFQEGLRTFDQLAAISSLPTPSDIFVSYSTFPGFVSWRDPKSGSWYVETLDDIFEQWAHSEDLQSLLLRVANAVSVKGIYKQMPGCFNFLRKKLFFKTS | low to undetectable basal activity; also recorded: lowered basal activity, but not as low as in N405Q; also recorded: less basal activity than wild type caspase-9; also recorded: lower basal activity; also recorded: lower basal signaling compared to the wild-type caspase-9; also recorded: statistically lower basal signaling | relative SEAP activity Units (basal activity) ([2]; 1 μg iCasp9 per million cells): 148928; relative SEAP activity Units (basal activity) ([2]; 2 μg iCasp9 per million cells): 136863; CD19 mean fluorescence intensity (MFI) of transduced PG13 cells [3]: enhanced CD19 mean fluorescence intensity; viral titers [3]: higher viral titers; T cell proliferation and survival [4]: halted T cell proliferation |
| D330N: chimeric modified caspase-9 polypeptide variant (protein) VDGFGDVGALESLRGNADLAYILSMEPCGHCLIINNVNFCRESGLRTRTGSNIDCEKLRRRFSSLHFMVEVKGDLTAKKMVLALLELARQDHGALDCCVVVILSHGCQASHLQFPGAVYGTDGCPVSVEKIVNIFNGTSCPSLGGKPKLFFIQACGGEQKDHGFEVASTSPEDESPGSNPEPDATPFQEGLRTFDQLNAISSLPTPSDIFVSYSTFPGFVSWRDPKSGSWYVETLDDIFEQWAHSEDLQSLLLRVANAVSVKGIYKQMPGCFNFLRKKLFFKTSASRA | less basal activity than wild type caspase-9 | – |
| S196D: chimeric modified caspase-9 polypeptide variant (protein) VDGFGDVGALESLRGNADLAYILSMEPCGHCLIINNVNFCRESGLRTRTGSNIDCEKLRRRFSDLHFMVEVKGDLTAKKMVLALLELARQDHGALDCCVVVILSHGCQASHLQFPGAVYGTDGCPVSVEKIVNIFNGTSCPSLGGKPKLFFIQACGGEQKDHGFEVASTSPEDESPGSNPEPDATPFQEGLRTFDQLDAISSLPTPSDIFVSYSTFPGFVSWRDPKSGSWYVETLDDIFEQWAHSEDLQSLLLRVANAVSVKGIYKQMPGCFNFLRKKLFFKTSASRA | lower basal activity | – |
| F404Y: chimeric modified caspase-9 polypeptide variant (protein) VDGFGDVGALESLRGNADLAYILSMEPCGHCLIINNVNFCRESGLRTRTGSNIDCEKLRRRFSSLHFMVEVKGDLTAKKMVLALLELARQDHGALDCCVVVILSHGCQASHLQFPGAVYGTDGCPVSVEKIVNIFNGTSCPSLGGKPKLFFIQACGGEQKDHGFEVASTSPEDESPGSNPEPDATPFQEGLRTFDQLDAISSLPTPSDIFVSYSTFPGFVSWRDPKSGSWYVETLDDIFEQWAHSEDLQSLLLRVANAVSVKGIYKQMPGCYNFLRKKLFFKTSASRA | lower basal signaling than WT | T cell proliferation and survival [4]: indistinguishable from wild type caspase-9 polypeptide or D330A |
| F404W: chimeric modified caspase-9 polypeptide variant (protein) VDGFGDVGALESLRGNADLAYILSMEPCGHCLIINNVNFCRESGLRTRTGSNIDCEKLRRRFSSLHFMVEVKGDLTAKKMVLALLELARQDHGALDCCVVVILSHGCQASHLQFPGAVYGTDGCPVSVEKIVNIFNGTSCPSLGGKPKLFFIQACGGEQKDHGFEVASTSPEDESPGSNPEPDATPFQEGLRTFDQLDAISSLPTPSDIFVSYSTFPGFVSWRDPKSGSWYVETLDDIFEQWAHSEDLQSLLLRVANAVSVKGIYKQMPGCWNFLRKKLFFKTSASRA | lower basal signaling than WT | – |
| D330V: chimeric modified caspase-9 polypeptide variant (protein) VDGFGDVGALESLRGNADLAYILSMEPCGHCLIINNVNFCRESGLRTRTGSNIDCEKLRRRFSSLHFMVEVKGDLTAKKMVLALLELARQDHGALDCCVVVILSHGCQASHLQFPGAVYGTDGCPVSVEKIVNIFNGTSCPSLGGKPKLFFIQACGGEQKDHGFEVASTSPEDESPGSNPEPDATPFQEGLRTFDQLVAISSLPTPSDIFVSYSTFPGFVSWRDPKSGSWYVETLDDIFEQWAHSEDLQSLLLRVANAVSVKGIYKQMPGCFNFLRKKLFFKTSASRA | less basal activity than wild type caspase-9 | – |
| D330S: chimeric modified caspase-9 polypeptide variant (protein) VDGFGDVGALESLRGNADLAYILSMEPCGHCLIINNVNFCRESGLRTRTGSNIDCEKLRRRFSSLHFMVEVKGDLTAKKMVLALLELARQDHGALDCCVVVILSHGCQASHLQFPGAVYGTDGCPVSVEKIVNIFNGTSCPSLGGKPKLFFIQACGGEQKDHGFEVASTSPEDESPGSNPEPDATPFQEGLRTFDQLSAISSLPTPSDIFVSYSTFPGFVSWRDPKSGSWYVETLDDIFEQWAHSEDLQSLLLRVANAVSVKGIYKQMPGCFNFLRKKLFFKTSASRA | less basal activity than wild type caspase-9; also recorded: statistically lower basal signaling | – |
| D330G: chimeric modified caspase-9 polypeptide variant (protein) VDGFGDVGALESLRGNADLAYILSMEPCGHCLIINNVNFCRESGLRTRTGSNIDCEKLRRRFSSLHFMVEVKGDLTAKKMVLALLELARQDHGALDCCVVVILSHGCQASHLQFPGAVYGTDGCPVSVEKIVNIFNGTSCPSLGGKPKLFFIQACGGEQKDHGFEVASTSPEDESPGSNPEPDATPFQEGLRTFDQLGAISSLPTPSDIFVSYSTFPGFVSWRDPKSGSWYVETLDDIFEQWAHSEDLQSLLLRVANAVSVKGIYKQMPGCFNFLRKKLFFKTSASRA | less basal activity than wild type caspase-9 | – |
| F406T: chimeric modified caspase-9 polypeptide variant (protein) VDGFGDVGALESLRGNADLAYILSMEPCGHCLIINNVNFCRESGLRTRTGSNIDCEKLRRRFSSLHFMVEVKGDLTAKKMVLALLELARQDHGALDCCVVVILSHGCQASHLQFPGAVYGTDGCPVSVEKIVNIFNGTSCPSLGGKPKLFFIQACGGEQKDHGFEVASTSPEDESPGSNPEPDATPFQEGLRTFDQLDAISSLPTPSDIFVSYSTFPGFVSWRDPKSGSWYVETLDDIFEQWAHSEDLQSLLLRVANAVSVKGIYKQMPGCFNTLRKKLFFKTSASRA | lower basal signaling than WT | – |
| S183A: chimeric modified caspase-9 polypeptide variant (protein) VDGFGDVGALESLRGNADLAYILSMEPCGHCLIINNVNFCRESGLRTRTGANIDCEKLRRRFSSLHFMVEVKGDLTAKKMVLALLELARQDHGALDCCVVVILSHGCQASHLQFPGAVYGTDGCPVSVEKIVNIFNGTSCPSLGGKPKLFFIQACGGEQKDHGFEVASTSPEDESPGSNPEPDATPFQEGLRTFDQLDAISSLPTPSDIFVSYSTFPGFVSWRDPKSGSWYVETLDDIFEQWAHSEDLQSLLLRVANAVSVKGIYKQMPGCFNFLRKKLFFKTSASRA | lower basal activity | – |
